The target in experiment [1] is T1, human CD3 on Jurkat cells (human, UniProt P07766 23-207; P04234 22-171; P09693 23-182).
T1 construct: whole, on cells; CD3 complex as on Jurkat (Clone E6-1) cells; also called CD3 expressing cells (Jurkat)
Put plainly: FACS, Jurkat cells.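 Also: flow cytometric binding of bispecific antibodies to Jurkat T cells, threefold serial dilutions incubated half an hour in the cold, EC50 taken from the fitted binding curve.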 For orientation: Flow cytometry measures light scatter and fluorescence of single cells or particles in a stream.
Procedure: The binding of the bispecific antibodies was tested on the CA expressing human lung adenocarcinoma cell line (H1573) and the CD3 expressing immortalized T lymphocyte line (Jurkat). The steps are as follows: the cells were harvested, counted, and resuspended in FACS buffer (PBS containing 0.1% BSA) at 2×10⁶ cells/ml. 100 μl of cell suspension was incubated in a V-bottom 96-well plate at 4° C. with 3-fold serial dilutions of bispecific antibodies (20 μg/ml-0.009 μg/ml) for 30 minutes; washed twice with pre-cooled FACS buffer. […] GraphPadPrism was used to obtain the binding curve.

Experiment [2] deals with T2, human CD3ε/δ (ACRO systems, CDD-H52W1) (human, UniProt P07766 23-126; P04234 22-105).
T2 construct: Bought protein; also called human CD3ϵ/CD3δ; human CD3 epsilon/delta antigen
Put plainly: BLI, antibody captured, antigen in solution.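 Also: bispecific antibodies captured on AHIC biosensors to a 1.5 nm loading signal, in PBST with 0.02% detergent.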 On the technique in general: In BLI a coated tip is dipped into the sample, and binding shifts an interference pattern.
Procedure: The bispecific antibodies were diluted to 5 ag/ml, and 1.5 nm protein was coupled to the surface of the AHIC sensor chip through 0.02% PBST.

Values joined by “and” are separate entries in the source; they are usually repeats but may differ in a detail not shown here. Identical values can stand only once.

B1: Knob-Fab+CEA-Hole (108) (bispecific antibody, human IgG4 S228P, kappa, F234A L235A)
heavy: ESKYGPPCPPCPAPEAAGGPSVFLFPPKPKDTLMISRTPEVTCVVVDVSQEDPEVQFNWYVDGVEVHNAKTKPREEQFNSTYRVVSVLTVLHQDWLNGKEYKCKVSNKGLPSSIEKTISKAKGQPREPQVYTLPPCQEEMTKNQVSLWCLVKGFYPSDIAVEWESNGQPENNYKTTPPVLDSDGSFFLYSRLTVDKSRWQEGNVFSCSVMHEALHNHYTQKSLSLSLGGGGSGGGGSEVKLLESGGGLVQPKGSLKLSCAASGFTFNTYAMNWVRQAPGKGLEWVARIRSKYNNYATYYADSVKDRFTISRDDSQSILYLQMNNLKTEDTAMYYCVRHGNFGNSYVSWFAYWGQGTLVTVSSASTKGPSVFPLAPCSRSTSESTAALGCLVKDYFPEPVTVSWNSGALTSGVHTFPAVLQSSGLYSLSSVVTVPSSSLGTKTYTCNVDHKPSNTKVDKRV
chain: EVQLVESGGGFVQAGESLTLSCTSSTLTFTPYRMAWYRQAPGKQRDLVADISSGDGRTTNYADFAKGRFTISRDNIKNTVFLRMTNLKPEDTAVYYCNTFVSFVGIARSWGQGTQVTVSSESKYGPPCPPCPAPEAAGGPSVFLFPPKPKDTLMISRTPEVTCVVVDVSQEDPEVQFNWYVDGVEVHNAKTKPREEQFNSTYRVVSVLTVLHQDWLNGKEYKCKVSNKGLPSSIEKTISKAKGQPREPQVCTLPPSQEEMTKNQVSLSCAVKGFYPSDIAVEWESNGQPENNYKTTPPVLDSDGSFFLVSRLTVDKSRWQEGNVFSCSVMHEALHNRFTQKSLSLSL
light: QAVVTQESALTTSPGETVTLTCRSSTGAVTTSNYANWVQEKPDHLFTGLIGGTNKRAPGVPARFSGSLIGDKAALTITGAQTEDEAIYFCALWYSNLWVFGGGTKVEIKRTVAAPSVFIFPPSDEQLKSGTASVVCLLNNFYPREAKVQWKVDNALQSGNSQESVTEQDSKDSTYSLSSTLTLSKADYEKHKVYACEVTHQGLSSPVTKSFNRGEC
notes: Anti-CD3 TA1 Fab + anti-CEA VHH C17 on human IgG4 knob-into-hole Fc
Broadly, the EC50 is the concentration that produces a half-maximal response. Broadly, the Kd is the concentration at which binding is half-saturated. The term koff denotes the rate constant with which the complex falls apart. One may read the kon as the rate constant with which the complex forms. Low readings indicate slower complex formation, high ones faster complex formation. Turning to B1, the EC50 in experiment [1] was 5.53 µg/mL and 42.5 nM. In experiment [2], this molecule yielded a Kd of 1.79 nM, a koff of 0.00047 s⁻¹ and a kon of 262000 M⁻¹ s⁻¹.

B2: Knob-Fab+Hole-CEA (109) (bispecific antibody, human IgG4 S228P, kappa, F234A L235A)
heavy: B1 heavy
chain: ESKYGPPCPPCPAPEAAGGPSVFLFPPKPKDTLMISRTPEVTCVVVDVSQEDPEVQFNWYVDGVEVHNAKTKPREEQFNSTYRVVSVLTVLHQDWLNGKEYKCKVSNKGLPSSIEKTISKAKGQPREPQVCTLPPSQEEMTKNQVSLSCAVKGFYPSDIAVEWESNGQPENNYKTTPPVLDSDGSFFLVSRLTVDKSRWQEGNVFSCSVMHEALHNRFTQKSLSLSLGGGGSGGGGSEVQLVESGGGFVQAGESLTLSCTSSTLTFTPYRMAWYRQAPGKQRDLVADISSGDGRTTNYADFAKGRFTISRDNIKNTVFLRMTNLKPEDTAVYYCNTFVSFVGIARSWGQGTQVTVSS
light: B1 light
notes: as for B1
As for B2, the EC50 in experiment [1] is 12.1 µg/mL and 93 nM. In experiment [2], this molecule registered a Kd of 1.67 nM, a koff of 0.000485 s⁻¹ and a kon of 291000 M⁻¹ s⁻¹.

B3: Fab (Light)-Knob-CEA+Fab (Heavy)-Hole (209) (bispecific antibody, human IgG4 S228P, kappa, F234A L235A)
chain: QAVVTQESALTTSPGETVTLTCRSSTGAVTTSNYANWVQEKPDHLFTGLIGGTNKRAPGVPARFSGSLIGDKAALTITGAQTEDEAIYFCALWYSNLWVFGGGTKVEIKRTVAAPSVFIFPPSDEQLKSGTASVVCLLNNFYPREAKVQWKVDNALQSGNSQESVTEQDSKDSTYSLSSTLTLSKADYEKHKVYACEVTHQGLSSPVTKSFNRGECESKYGPPCPPCPAPEAAGGPSVFLFPPKPKDTLMISRTPEVTCVVVDVSQEDPEVQFNWYVDGVEVHNAKTKPREEQFNSTYRVVSVLTVLHQDWLNGKEYKCKVSNKGLPSSIEKTISKAKGQPREPQVYTLPPCQEEMTKNQVSLWCLVKGFYPSDIAVEWESNGQPENNYKTTPPVLDSDGSFFLYSRLTVDKSRWQEGNVFSCSVMHEALHNHYTQKSLSLSLGGGGSGGGGSEVQLVESGGGFVQAGESLTLSCTSSTLTFTPYRMAWYRQAPGKQRDLVADISSGDGRTTNYADFAKGRFTISRDNIKNTVFLRMTNLKPEDTAVYYCNTFVSFVGIARSWGQGTQVTVSS
heavy: EVKLLESGGGLVQPKGSLKLSCAASGFTFNTYAMNWVRQAPGKGLEWVARIRSKYNNYATYYADSVKDRFTISRDDSQSILYLQMNNLKTEDTAMYYCVRHGNFGNSYVSWFAYWGQGTLVTVSSASTKGPSVFPLAPCSRSTSESTAALGCLVKDYFPEPVTVSWNSGALTSGVHTFPAVLQSSGLYSLSSVVTVPSSSLGTKTYTCNVDHKPSNTKVDKRVESKYGPPCPPCPAPEAAGGPSVFLFPPKPKDTLMISRTPEVTCVVVDVSQEDPEVQFNWYVDGVEVHNAKTKPREEQFNSTYRVVSVLTVLHQDWLNGKEYKCKVSNKGLPSSIEKTISKAKGQPREPQVCTLPPSQEEMTKNQVSLSCAVKGFYPSDIAVEWESNGQPENNYKTTPPVLDSDGSFFLVSRLTVDKSRWQEGNVFSCSVMHEALHNRFTQKSLSLSL
notes: Two-chain format; human IgG4 knob-into-hole Fc
Consider B3, for which the 50% effective concentration (EC50) in experiment [1] is 0.866 µg/mL and 6.66 nM. In experiment [2], this molecule yielded a Kd of 2.01 nM, a koff of 0.000338 s⁻¹ and a kon of 168000 M⁻¹ s⁻¹.

B4: 308 (TA3), configuration of FIG. 1X (bispecific antibody, IgG4)
heavy: EVQLVESGGGLVQPGGSLRLSCAASGYSFTGYTMNWVRQAPGKGLEWVALINPYKGVSTYNQKFKDRFTISVDKSKNTAYLQMNSLRAEDTAVYYCARSGYYGDSDWYFDVWGQGTLVTVSSASTKGPSVFPLAPCSRSTSESTAALGCLVKDYFPEPVTVSWNSGALTSGVHTFPAVLQSSGLYSLSSVVTVPSSSLGTKTYTCNVDHKPSNTKVDKRVESKYGPPCPPCPAPEAAGGPSVFLFPPKPKDTLMISRTPEVTCVVVDVSQEDPEVQFNWYVDGVEVHNAKTKPREEQFNSTYRVVSVLTVLHQDWLNGKEYKCKVSNKGLPSSIEKTISKAKGQPREPQVYTLPPCQEEMTKNQVSLWCLVKGFYPSDIAVEWESNGQPENNYKTTPPVLDSDGSFFLYSRLTVDKSRWQEGNVFSCSVMHEALHNHYTQKSLSLSLGGGGSGGGGSEVQLVESGGGFVQAGESLTLSCTSSTLTFTPYRMAWYRQAPGKQRDLVADISSGDGRTTNYADFAKGRFTISRDNIKNTVFLRMTNLKPEDTAVYYCNTFVSFVGIARSWGQGTQVTVSS
chain: ESKYGPPCPPCPAPEAAGGPSVFLFPPKPKDTLMISRTPEVTCVVVDVSQEDPEVQFNWYVDGVEVHNAKTKPREEQFNSTYRVVSVLTVLHQDWLNGKEYKCKVSNKGLPSSIEKTISKAKGQPREPQVCTLPPSQEEMTKNQVSLSCAVKGFYPSDIAVEWESNGQPENNYKTTPPVLDSDGSFFLVSRLTVDKSRWQEGNVFSCSVMHEALHNRFTQKSLSLSL
light: DIQMTQSPSSLSASVGDRVTITCRASQDIRNYLNWYQQKPGKAPKLLIYYTSRLESGVPSRFSGSGSGTDYTLTISSLQPEDFATYYCQQGNTLPWTFGQGTKVEIK
notes: chains put together from parts; IgG4, kappa; not shown: kappa light chain constant domain (CL)
Turning to B4, in experiment [1], the EC50 is 4.59 µg/mL and 35.3 nM. Moreover, in experiment [2], binding was put at a Kd of 3.01 nM and the koff is 0.000997 s⁻¹.

B5: Fab (Light)-Knob+Fab (Heavy)-Hole-CEA (210) (bispecific antibody, human IgG4 S228P, kappa, F234A L235A)
chain: QAVVTQESALTTSPGETVTLTCRSSTGAVTTSNYANWVQEKPDHLFTGLIGGTNKRAPGVPARFSGSLIGDKAALTITGAQTEDEAIYFCALWYSNLWVFGGGTKVEIKRTVAAPSVFIFPPSDEQLKSGTASVVCLLNNFYPREAKVQWKVDNALQSGNSQESVTEQDSKDSTYSLSSTLTLSKADYEKHKVYACEVTHQGLSSPVTKSFNRGECESKYGPPCPPCPAPEAAGGPSVFLFPPKPKDTLMISRTPEVTCVVVDVSQEDPEVQFNWYVDGVEVHNAKTKPREEQFNSTYRVVSVLTVLHQDWLNGKEYKCKVSNKGLPSSIEKTISKAKGQPREPQVYTLPPCQEEMTKNQVSLWCLVKGFYPSDIAVEWESNGQPENNYKTTPPVLDSDGSFFLYSRLTVDKSRWQEGNVFSCSVMHEALHNHYTQKSLSLSL
heavy: EVKLLESGGGLVQPKGSLKLSCAASGFTFNTYAMNWVRQAPGKGLEWVARIRSKYNNYATYYADSVKDRFTISRDDSQSILYLQMNNLKTEDTAMYYCVRHGNFGNSYVSWFAYWGQGTLVTVSSASTKGPSVFPLAPCSRSTSESTAALGCLVKDYFPEPVTVSWNSGALTSGVHTFPAVLQSSGLYSLSSVVTVPSSSLGTKTYTCNVDHKPSNTKVDKRVESKYGPPCPPCPAPEAAGGPSVFLFPPKPKDTLMISRTPEVTCVVVDVSQEDPEVQFNWYVDGVEVHNAKTKPREEQFNSTYRVVSVLTVLHQDWLNGKEYKCKVSNKGLPSSIEKTISKAKGQPREPQVCTLPPSQEEMTKNQVSLSCAVKGFYPSDIAVEWESNGQPENNYKTTPPVLDSDGSFFLVSRLTVDKSRWQEGNVFSCSVMHEALHNRFTQKSLSLSLGGGGSGGGGSEVQLVESGGGFVQAGESLTLSCTSSTLTFTPYRMAWYRQAPGKQRDLVADISSGDGRTTNYADFAKGRFTISRDNIKNTVFLRMTNLKPEDTAVYYCNTFVSFVGIARSWGQGTQVTVSS
notes: Two-chain format; human IgG4 knob-into-hole Fc; also called CEA-CD3 bispecific antibody 210
As for B5, the EC50 in experiment [1] is 2.08 µg/mL and 16 nM. In experiment [2], this molecule registered a Kd of 2.83 nM, a koff of 0.000689 s⁻¹ and a kon of 243000 M⁻¹ s⁻¹.

These data come from patent publication US20240400715A1 (VIBRANT PHARMA, published 2024).
